Our source for the Kd values is paper PMC7969020.

The subject of the series is TDG (thymine DNA glycosylase), full length (Homo sapiens). In words: EMSA. Particulars: EMSA: 5 nM 32P DNA or mononucleosome, TDG 0-1 uM, buffer NB (composition not in material) + 0.2 mM MgCl2, 5% glycerol, 37 C 20 min; 5% native PAGE at 4 C.
In the case of 0-NCP-30 mononucleosome, the Kd (as a rule, the constant that tells how readily two partners part at equilibrium) came to 59 nM.

Take 0-NCP-0 mononucleosome: the Kd stood at 185 nM. Under 601 DNA (naked, 147 bp) stands 38 nM; under 30-NCP-30 mononucleosome, 62 nM.
